Laboratory results taken from patent publication WO2012075111A1 (dated 2012).

How the values were obtained:
[1] = target: human CD40 (human) (UniProt P25942); assay: Biacore
[2] = target: T1, soluble CD40 (Homo sapiens (Human), UniProt P25942 20-193); assay: ELISA-type assays
T1 construct: Soluble CD40 as used in ELISA-type assays; the real soluble form is shorter
T1 sequence (P25942 20-193): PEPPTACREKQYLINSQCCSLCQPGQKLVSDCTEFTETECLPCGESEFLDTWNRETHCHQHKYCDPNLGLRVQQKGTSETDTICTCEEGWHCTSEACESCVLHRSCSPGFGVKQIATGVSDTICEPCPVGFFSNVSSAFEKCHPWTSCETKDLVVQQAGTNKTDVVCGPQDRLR

B1: monoclonal antibody HCD122 (antibody, human IgG1, kappa, V domains shown)
VH: QVQLVESGGGVVQPGRSLRLSCAASGFTFSSYGMHWVRQAPGKGLEWVAVISYEESNRYHADSVKGRFTISRDNSKITLYLQMNSLRTEDTAVYYCARDGGIAAPGPDYWGQGTLVTVSS
VL: DIVMTQSPLSLTVTPGEPASISCRSSQSLLYSNGYNYLDWYLQKPGQSPQVLISLGSNRASGVPDRFSGSGSGTDFTLKISRVEAEDVGVYYCMQARQTPFTFGPGTKVDIRR
notes: Fully human IgG1 kappa anti-CD40 monoclonal antibody from the hybridoma deposited as ATCC PTA-5543; also called CHIR-12.12
- Kd [1]: 0.5 nM
- binding result [2]: binds
